According to patent publication US20230399416A1 (MIRIMGENE, published 2023):

Key:
[1] = target: T1, human WARS1 recombinant protein (human, UniProt P23381 1-471, limits assumed); assay: SPR, Biacore T200, CM5 chip, serially diluted GKB101 injected
T1 construct: In the immunoblot the endogenous WARS1 of THP-1 human monocytes was also detected; also called human recombinant protein; tryptophanyl-tRNA synthetase 1, cytoplasmic
T1 sequence (looked up): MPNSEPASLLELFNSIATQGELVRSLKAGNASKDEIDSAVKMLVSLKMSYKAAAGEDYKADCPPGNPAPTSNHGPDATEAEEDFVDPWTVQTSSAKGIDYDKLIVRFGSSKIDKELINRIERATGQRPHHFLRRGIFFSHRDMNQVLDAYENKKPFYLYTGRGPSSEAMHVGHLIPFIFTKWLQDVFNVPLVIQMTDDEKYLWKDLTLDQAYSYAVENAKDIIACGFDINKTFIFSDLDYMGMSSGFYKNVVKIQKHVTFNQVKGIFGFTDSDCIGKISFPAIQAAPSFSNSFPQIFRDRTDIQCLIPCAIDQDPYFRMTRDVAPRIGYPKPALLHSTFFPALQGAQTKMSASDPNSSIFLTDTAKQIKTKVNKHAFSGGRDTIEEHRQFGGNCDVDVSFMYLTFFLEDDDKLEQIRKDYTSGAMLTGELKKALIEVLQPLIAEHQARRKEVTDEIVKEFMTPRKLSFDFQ
Protocol: (§1) 1) SPR: Binding ability was measured using Series S Sensor CM5 Chip (GE Healthcare Life Sciences) and GE Bioacore T200. A HBS-EP buffer (GE Healthcare Life Sciences) was used. After injecting serially diluted GKB101 or buffer for 1-10 minutes at a flow rate of 30 μL/min, the analyte was washed for 20 minutes.

[2] = target: T2, mouse WARS1 recombinant protein (mouse, UniProt P32921 1-481, limits assumed); assay: as above
T2 construct: In the immunoblot the endogenous WARS1 of J774.1A mouse macrophages was also detected; also called mouse recombinant protein
T2 sequence (looked up): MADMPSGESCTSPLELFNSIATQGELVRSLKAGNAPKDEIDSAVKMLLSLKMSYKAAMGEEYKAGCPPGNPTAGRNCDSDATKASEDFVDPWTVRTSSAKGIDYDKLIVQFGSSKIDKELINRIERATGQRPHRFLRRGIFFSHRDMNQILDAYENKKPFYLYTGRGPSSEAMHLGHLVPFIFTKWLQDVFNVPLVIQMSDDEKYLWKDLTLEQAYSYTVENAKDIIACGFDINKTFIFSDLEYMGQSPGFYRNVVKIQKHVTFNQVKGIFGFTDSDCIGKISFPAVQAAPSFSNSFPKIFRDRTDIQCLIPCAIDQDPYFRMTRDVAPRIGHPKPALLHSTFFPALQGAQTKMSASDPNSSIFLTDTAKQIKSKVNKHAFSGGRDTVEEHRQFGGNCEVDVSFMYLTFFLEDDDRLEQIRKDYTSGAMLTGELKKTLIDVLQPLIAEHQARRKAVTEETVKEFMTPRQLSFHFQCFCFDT
Protocol: as §1

B1: GKB101 (antibody, IgG1, V domains shown)
VH: EVQLLESGGGLVQPGGSLRLSCAASGFTFSSYDMSWVRQAPGKGLEWVSAISSGGSSIYYADSVKGRFTISRDNSKNTLYLQMNSLRAEDTAVYYCARDVAWDMLGDFDYWGQGTLVTVSS
VL: QSVLTQPPSASGTPGQRVTISCTGSSSNIGSNYVYWYQQLPGTAPKLLIYANSHRPSGVPDRFSGSKSGTSASLAISGLRSEDEADYYCGAWDDSLSAYVFGGGTKLTVTV
notes: IgG1 made from the selected scFv with the constant regions of herceptin expression vectors, expressed in Expi293F cells; Joined as printed they may lack a few residues at the junctions (VL/CL, CH2/CH3) and at the C-terminus of CH3; also called WARS1-specific antibody; anti-WARS1 antibody
Kd [1]: ~0.2 nM | Kd [2]: ~3.76 nM
